Assay results published in patent US20100029702A1, “Method For Identification of Compound Having Anti-Anxiety Effect” (priority 2006, published 2010).

Biological target: T1, ph01207 gene product (Homo sapiens, UniProt O60241, DEL308-362)
T1 construct: oocytes expressing the gene (ph01207 cDNA clones); expressed in transfected cells; host or cells: Xenopus laevis oocytes
T1 sequence (O60241 with tags, fused parts or gaps DEL308-362): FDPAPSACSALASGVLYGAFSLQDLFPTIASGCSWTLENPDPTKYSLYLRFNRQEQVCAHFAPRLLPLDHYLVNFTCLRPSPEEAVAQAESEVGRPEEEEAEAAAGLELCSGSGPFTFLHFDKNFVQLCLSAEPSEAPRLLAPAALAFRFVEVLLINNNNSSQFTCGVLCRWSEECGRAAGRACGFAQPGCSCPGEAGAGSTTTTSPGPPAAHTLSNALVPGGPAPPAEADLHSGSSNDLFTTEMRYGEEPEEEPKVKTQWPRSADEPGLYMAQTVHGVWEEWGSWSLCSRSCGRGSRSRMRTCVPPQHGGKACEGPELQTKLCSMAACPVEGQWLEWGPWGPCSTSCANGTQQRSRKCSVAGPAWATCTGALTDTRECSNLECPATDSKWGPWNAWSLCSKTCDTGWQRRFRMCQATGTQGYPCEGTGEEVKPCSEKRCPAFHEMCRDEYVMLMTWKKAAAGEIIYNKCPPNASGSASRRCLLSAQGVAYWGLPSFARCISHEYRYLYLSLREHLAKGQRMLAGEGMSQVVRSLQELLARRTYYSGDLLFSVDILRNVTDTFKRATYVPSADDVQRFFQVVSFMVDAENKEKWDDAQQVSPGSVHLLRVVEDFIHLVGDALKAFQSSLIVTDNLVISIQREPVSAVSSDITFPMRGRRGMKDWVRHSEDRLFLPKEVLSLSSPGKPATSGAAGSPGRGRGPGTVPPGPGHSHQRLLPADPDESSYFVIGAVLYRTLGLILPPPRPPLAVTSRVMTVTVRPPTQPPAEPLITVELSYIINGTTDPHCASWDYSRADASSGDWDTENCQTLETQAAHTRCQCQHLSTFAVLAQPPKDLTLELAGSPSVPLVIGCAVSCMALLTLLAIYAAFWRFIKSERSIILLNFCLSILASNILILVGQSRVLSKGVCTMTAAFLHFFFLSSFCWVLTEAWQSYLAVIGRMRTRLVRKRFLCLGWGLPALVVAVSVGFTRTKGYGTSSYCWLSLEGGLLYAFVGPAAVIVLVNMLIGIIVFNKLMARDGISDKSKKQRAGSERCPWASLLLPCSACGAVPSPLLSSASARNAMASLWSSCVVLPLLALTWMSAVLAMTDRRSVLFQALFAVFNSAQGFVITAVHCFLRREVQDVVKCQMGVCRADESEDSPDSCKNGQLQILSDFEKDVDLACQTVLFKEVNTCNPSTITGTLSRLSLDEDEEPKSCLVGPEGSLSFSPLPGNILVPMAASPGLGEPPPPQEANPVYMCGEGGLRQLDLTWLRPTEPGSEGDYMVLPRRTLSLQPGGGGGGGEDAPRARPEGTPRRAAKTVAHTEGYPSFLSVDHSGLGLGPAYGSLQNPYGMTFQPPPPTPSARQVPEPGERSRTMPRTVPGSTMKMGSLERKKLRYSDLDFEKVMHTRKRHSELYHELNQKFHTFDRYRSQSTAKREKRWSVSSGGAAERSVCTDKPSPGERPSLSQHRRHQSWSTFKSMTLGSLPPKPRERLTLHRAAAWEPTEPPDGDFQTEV
Experiment: Intracellular calcium concentration change assay with ph01207#3F8-17 strain: inhibition of the response to CCK-8S
Type: cell-based
Conditions: 10 nM CCK-8S, wells with buffer
From the text: A compound that inhibits a response of the ph01207 gene product to a ligand was identified by an intracellular calcium concentration change assay system using the ph01207-expressing cell strain.
The ph01207-expressing cell strain was constructed as follows. First, a ph01207-expressing vector not containing an epitope tag was constructed by recombination between a ph01207 cDNA clone identified in Example 1 and pcDNA3.1 (Invitrogen) with Asp718I (Boehringer) and NotI (TAKARA). The ph01207-expressing vector was transfected into the CHO-K1 strain, a host cell, using Lipofectamine 2000 (Invitrogen), and the cells were screened for stably-expressing strains by a selective medium containing G418. Expression of the gene introduced into the cell was detected by the FCM analysis using an anti-ph01207 antibody.
As a result, a plurality of cell strains stably expressing ph01207 were obtained. A compound was identified using the ph01207#3F8-17 strain, a clone of these strains.
As a ligand, CCK-8S (Peptide Institute, Inc.) was used. […]
Compounds were specifically identified as follows. […] After reaction, CCK-8S (Peptide Institute, Inc.) and a compound was added, and changes over time in the fluorescence intensity in each well were measured for 80 sec. […] Changes over time in the fluorescence intensity were measured using the FLEX station (Molecular Device).

cholecystokinin octapeptide sulfated form [CCK-8S]
Change in fluorescence intensity (intracellular Ca2+) after addition of CCK-8S: increased
